How the values were obtained:
recombinant canine β NGF [1] = target: T1, recombinant canine β NGF (canine, UniProt Q29074 110-229 (pig entry)); test: cell-based or functional assay
T1 chain: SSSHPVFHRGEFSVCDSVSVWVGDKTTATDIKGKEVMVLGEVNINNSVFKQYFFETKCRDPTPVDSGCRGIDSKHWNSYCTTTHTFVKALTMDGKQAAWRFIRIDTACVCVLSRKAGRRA

recombinant canine β NGF [2] = target: T2, recombinant canine β NGF (canine, UniProt Q29074 110-229 (pig entry)); test: cell-based or functional assay
T2 chain: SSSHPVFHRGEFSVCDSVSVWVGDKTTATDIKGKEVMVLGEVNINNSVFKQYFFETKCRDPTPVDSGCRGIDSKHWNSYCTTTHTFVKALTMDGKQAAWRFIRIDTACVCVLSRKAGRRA

recombinant canine β NGF [3] = target: T1, recombinant canine β NGF; test: SPR (Biacore T100), antibody captured on goat anti-canine IgG, canine NGF injected; Expt 2
Protocol: (§1) Purified mouse/canine chimeric antibodies and caninized antibodies were analyzed for affinity to canine NGF using a Biacore T100 instrument. Goat anti Canine IgG (Southern Biotech) was immobilized at 5000-10000 RU on a CM5 chip using an amine coupling procedure according to the manufacturer's instructions (Biacore). […] The association rate was monitored for 5 min and the dissociation rate was monitored for 10-20 min. The chip surface was regenerated using 50-75 ul 10 mM glycine pH 1.5 at a flow rate of 50-100 ul/min. Data was analyzed using Biaevaluation T100 software version 2.0.2, software, GE Healthcare Life Sciences (Piscataway, N.J.). Overall affinity parameters established for mouse/canine chimeric antibodies is summarized in Table 22 and for caninized antibodies in Table 23. […] The overall KDs of the mouse/canine anti-NGF mAbs range from about 1300 pM to 1.6 pM. […] The overall KDs of the caninized anti-NGF mAbs range from about 42 pM to 1.2 pM.

recombinant canine β NGF [4] = target: T1, recombinant canine β NGF; test: SPR (Biacore T100), antibody captured on goat anti-canine IgG, canine NGF injected; Expt 1
Protocol: as §1

recombinant canine β NGF [5] = target: T1, recombinant canine β NGF; test: SPR (Biacore T100), antibody captured on goat anti-canine IgG, canine NGF injected; Average
Protocol: as §1

B1: 72.3 Canine IgG1/k (antibody, V domains shown)
VH: EVHLVESGGDLVKPGGSLRLSCVASGFTFSDYYMFWIRQSPGKGLEWVATISDGGSYTYYTDNVKGRFTISRDNANNNLYLQMNSLKAEDTAVYYCAKDWSDSEGFAYWGQGTLVTVSS
VL: DVLMTQTPPSLSVSPREPASISCRSSQSIVQSNGNTYLEWYLQKPGQSPKLLIYKVSNRFSGVPDRFSGSGSGTDFTLRISRVEADDTGVYYCFQGSHVPFTFGAGTKVELKR
- IC50, canine NGF-induced TF-1 cell proliferation (70 pM canine NGF) (recombinant canine β NGF [1]): 0 nM

B2: 72.4 Canine IgG1/k (antibody, V domains shown)
VH: EVHLVESGGDLVKPGGSLRLSCVASGFTFSDYYMFWVRHSPGKGLEWVATISDGGSYTYYTDNVKGRFTISRDNANNTLYLQMNSLRAEDTAVYYCAKDWSDSEGFAYWGQGTLVTVSS
VL: DIVMTQTPPSLSVSPREPASISCRSSQSIVQSNGNTYLEWYLQKPGQSPKLLIYKVSNRFSGVPDRFSGSGSGTDFTLRISRVEADDTGVYYCFQGSHVPFTFGAGTKVELKR
- IC50, canine NGF-induced TF-1 cell proliferation (70 pM canine NGF) (recombinant canine β NGF [1]): 0 nM

B3: 77.4 Canine IgG1/k (antibody)
heavy: EVQLVQSAAEVKKPGASVKVSCKASGYIFIDTYIYWVKQAPGAGLEWMGRIDPANGNTIYASKFQGRVTLTADTSTNTVYMELSNLRTEDTAVYYCAGYGYYAYWGQGTLVTVSSASTTAPSVFPLAPSCGSTSGSTVALACLVSGYFPEPVTVSWNSGSLTSGVHTFPSVLQSSGLHSLSSMVTVPSSRWPSETFTCNVVHPASNTKVDKPVFNECRCTDTPPCPVPEPLGGPSVLIFPPKPKDILRITRTPEVTCVVLDLGREDPEVQISWFVDGKEVHTAKTQSREQQFNGTYRVVSVLPIEHQDWLTGKEFKCRVNHIDLPSPIERTISKARGRAHKPSVYVLPPSPKELSSSDTVSITCLIKDFYPPDIDVEWQSNGQQEPERKHRMTPPQLDEDGSYFLYSKLSVDKSRWQQGDPFTCAVMHETLQNHYTDLSLSHSPGK
light: DLVLTQTPRSLSVSPGETASISCKSTKSLLNGDGFTYLDWYRQKPGQSPQLLIYLVSNRFSGVPDRFSGSGSGTDFTLRISRVEADDTGLYYCFESNYLFTFSQGTNLEMKRNDAQPAVYLFQPSPDQLHTGSASVVCLLNSFYPKDINVKWKVDGVIQDTGIQESVTEQDKDSTYSLSSTLTMSSTEYLSHELYSCEITHKSLPSTLIKSFQRSECQRVD
- IC50, canine NGF-induced TF-1 cell proliferation (70 pM canine NGF) (recombinant canine β NGF [1]): 0 nM

B4: Mu77 Canine IgG1/k Chimera (antibody, V domains shown)
VH: EVQLQQSGAELVKPGASVKLSCTASGFNIKDTYIYWVKQRPEQGLEWIGRIDPANGNTIYASKFQGKASITADTSSNTAYMQLSSLTSGDTAVYYCAGYGYYAYWGQGTTLTVSS
VL: DVVLTQTPLSLPVNIGDQASISCKSTKSLLNGDGFTYLDWYLQKPGQSPQLLIYLVSNRFSGVPDRFSGSGSGTDFTLKISRVEAEDLGVYYCFESNYLFTFGSGTKLEMKR
- TF-1 cell proliferation potency (70 pM canine NGF) (recombinant canine β NGF [2]): < 50 pM

B5: 82.4 Canine IgG1/k (antibody, V domains shown)
VH: EVQLQESGPGLVKPSQTLSLTCTVSGGSVTGYNINWIRQRPDRGLEWMGMIWGYGDTDYNSALKSRISITKDNTKSQLFLQLTSTTTEDTAVYYCARDHYGGNDWYFDVWGQGTLVTVSS
VL: DIQMTQTPLSLSASPGESASISCRASQDITNYLNWYRQKPGQSPKLLIYYTSRLHSGVPSRFSGSGSGTDYTLRISRVEDEDAGLYFCQQGKTLPRTFGQGTKLEIKR
notes: The variable/constant junction was not checked; also called PR-1313521; PR-13113521
- Kd (recombinant canine β NGF [3]): 0.0015 nM
- koff (recombinant canine β NGF [3]): 1.2e-05 s⁻¹
- kon (recombinant canine β NGF [3]): 7.7e+06 M⁻¹ s⁻¹
- IC50, canine NGF-induced TF-1 cell proliferation (70 pM canine NGF) (recombinant canine β NGF [1]): 16 pM
- Kd (recombinant canine β NGF [4]): 0.0012 nM
- koff (recombinant canine β NGF [4]): 1.1e-05 s⁻¹
- kon (recombinant canine β NGF [4]): 8.6e+06 M⁻¹ s⁻¹
- Kd (recombinant canine β NGF [5]): 0.0014 nM
- koff (recombinant canine β NGF [5]): 1.2e-05 s⁻¹
- kon (recombinant canine β NGF [5]): 8.2e+06 M⁻¹ s⁻¹

B6: 73.2 Canine IgG1/k (antibody, V domains shown)
VH: QVQLVQSAAEVKKPGASVKVSCKASGYTFTNYWMHWVQQAPGAGLEWIGRIDPYGGGTKHNEKFKRRATVTADKSTSTAYMELSNLRTEDTAVYYCTRSGYDYYFDVWGQGTLVTVSS
VL: DIQMTQTPLSLSASPGESASITCRASENIYSFLAWHRQKPGQSPQLLVYNANTLAEGVPSRFSGSGSGTQFTLRISRVEDEDAGLYYCQHHFGTPFTFGQGTKLEIKR
notes: The variable/constant junction was not checked; also called PR-1313520; PR-13113520
- Kd (recombinant canine β NGF [3]): 0.042 nM
- koff (recombinant canine β NGF [3]): 0.00029 s⁻¹
- kon (recombinant canine β NGF [3]): 6.9e+06 M⁻¹ s⁻¹
- IC50, canine NGF-induced TF-1 cell proliferation (70 pM canine NGF) (recombinant canine β NGF [1]): 0.422 nM
- Kd (recombinant canine β NGF [4]): 0.044 nM
- koff (recombinant canine β NGF [4]): 0.00028 s⁻¹
- kon (recombinant canine β NGF [4]): 6.3e+06 M⁻¹ s⁻¹
- Kd (recombinant canine β NGF [5]): 0.043 nM
- koff (recombinant canine β NGF [5]): 0.00029 s⁻¹
- kon (recombinant canine β NGF [5]): 6.6e+06 M⁻¹ s⁻¹

B7: 73.4 Canine IgG1/k (antibody, V domains shown)
VH: EVQLVQSAAEVKKPGASVKVSCKASGYIFINYWMHWVQQAPGAGLEWMGRIDPYGGGTKHNEKFKRRVTLTADKSTSTVYMELSNLRTEDTAVYYCTRSGYDYYFDVWGQGTLVTVSS
VL: DIQMTQTPLSLSASPGESASISCRASENIYSFLAWHRQKPGQSPQLLIYNANTLAEGVPSRFSGSGSGTQFTLRISRVEDEDAGLYYCQHHFGTPFTFGQGTKLEIKR
- IC50, canine NGF-induced TF-1 cell proliferation (70 pM canine NGF) (recombinant canine β NGF [1]): 0 nM

B8: 77.3 Canine IgG1/k (antibody, V domains shown)
VH: EVQLVQSAAEVKKPGASVKVSCKASGFNIKDTYIYWVKQAPGAGLEWIGRIDPANGNTIYASKFQGKASITADTSTNTAYMELSNLRTEDTAVYYCAGYGYYAYWGQGTLVTVSS
VL: DVVLTQTPRSLSVSPGETASISCKSTKSLLNGDGFTYLDWYRQKPGQSPQLLIYLVSNRFSGVPDRFSGSGSGTDFTLRISRVEADDTGLYYCFESNYLFTFGQGTNLEMKR
- IC50, canine NGF-induced TF-1 cell proliferation (70 pM canine NGF) (recombinant canine β NGF [1]): 0.625 nM

B9: PR-1254973 (antibody, mouse IgG2b, V domains shown)
VH: QVQLQQPGAELVKPGASVKLSCKASGYTFTNYWMHWVKQRPGQGLEWIGRIDPYGGGTKHNEKFKRKATVTADKSSSTAYILLSSLTSEDSAVYYCTRSGYDYYFDVWGTGTTVTVSS
VL: DIQMTQSPASLSASVGETVTVTCRASENIYSFLAWHQQKQGKSPQLLVYNANTLAEGVPSRFSGSGSGTQFSLKINSLQPEDFGSYYCQHHFGTPFTFGSGTKLEIKR
- PathHunter IC50 (441 pM canine NGF) (recombinant canine β NGF [2]): < 1 nM
- SureFire cellular pERK IC50 (128 pM canine NGF) (recombinant canine β NGF [2]): < 1 nM

B10: Mu73 Canine IgG1/k Chimera (antibody, V domains shown)
VH: QVQLQQPGAELVKPGASVKLSCKASGYTFTNYWMHWVKQRPGQGLEWIGRIDPYGGGTKHNEKFKRKATVTADKSSSTAYILLSSLTSEDSAVYYCTRSGYDYYFDVWGTGTTVTVSS
VL: DIQMTQSPASLSASVGETVTVTCRASENIYSFLAWHQQKQGKSPQLLVYNANTLAEGVPSRFSGSGSGTQFSLKINSLQPEDFGSYYCQHHFGTPFTFGSGTKLEIKR
- TF-1 cell proliferation potency (70 pM canine NGF) (recombinant canine β NGF [2]): < 50 pM

B11: PR-1254981 (antibody, mouse IgG1, V domains shown)
VH: EVQLVESGGGAVKPGGSLTLSCAASGFTFSNHYMYWVRQTPEKRLEWVASISDGGAYTFYPDTVKGRFTISRDNVNNNLYLQMRHLKSEDTAMYYCTREESANNGFAFWGQGTLVTVSA
VL: DVLMTQTPLSLPVSLGDQASISCRSSQSILHSNGNTYLEWYLQKPGQSPNLLIYRVSNRFSGVPDRFSGSGSGTDFTLKISRVEAEDLGVYYCFQGAHVPFTFGSGTKLEIKR
- PathHunter IC50 (441 pM canine NGF) (recombinant canine β NGF [2]): < 1 nM
- SureFire cellular pERK IC50 (128 pM canine NGF) (recombinant canine β NGF [2]): < 1 nM

B12: Mu81 Canine IgG1/k Chimera (antibody, V domains shown)
VH: EVQLVESGGGAVKPGGSLTLSCAASGFTFSNHYMYWVRQTPEKRLEWVASISDGGAYTFYPDTVKGRFTISRDNVNNNLYLQMRHLKSEDTAMYYCTREESANNGFAFWGQGTLVTVSA
VL: DVLMTQTPLSLPVSLGDQASISCRSSQSILHSNGNTYLEWYLQKPGQSPNLLIYRVSNRFSGVPDRFSGSGSGTDFTLKISRVEAEDLGVYYCFQGAHVPFTFGSGTKLEIKR
- TF-1 cell proliferation potency (70 pM canine NGF) (recombinant canine β NGF [2]): < 50 pM

B13: PR-1254982 (antibody, mouse IgG1, V domains shown)
VH: QVQLKESGPGLVAPSQSLSITCTVSGFSLTGYNINWVRQPPGKGLEWLGMIWGYGDTDYNSALKSRLSISKDNSKSQVFLKMNSLQTDDTARYYCARDHYGGNDWYFDVWGTGTTVTVSS
VL: DIQMTQTTSSLSASLGDRVTITCRASQDITNYLNWYQQKPDGTVKLLIYYTSRLHSGVPSRFSGSGSGTDYSLTISNLDQEDIATYFCQQGKTLPRTFGGGTKLEIKR
- PathHunter IC50 (441 pM canine NGF) (recombinant canine β NGF [2]): < 1 nM
- SureFire cellular pERK IC50 (128 pM canine NGF) (recombinant canine β NGF [2]): < 1 nM

B14: Mu82 Canine IgG1/k Chimera (antibody, V domains shown)
VH: QVQLKESGPGLVAPSQSLSITCTVSGFSLTGYNINWVRQPPGKGLEWLGMIWGYGDTDYNSALKSRLSISKDNSKSQVFLKMNSLQTDDTARYYCARDHYGGNDWYFDVWGTGTTVTVSS
VL: DIQMTQTTSSLSASLGDRVTITCRASQDITNYLNWYQQKPDGTVKLLIYYTSRLHSGVPSRFSGSGSGTDYSLTISNLDQEDIATYFCQQGKTLPRTFGGGTKLEIKR
- TF-1 cell proliferation potency (70 pM canine NGF) (recombinant canine β NGF [2]): < 50 pM
